IntAct's records for PubMed 17167418

B1: Synaptotagmin-2 (Mus musculus), P46097 (parent)
chain: MRNIFKRNQEPNVAPATTTATMPLAPVAPADNSTESTGPGESQEDMFAKLKEKFFNEINKIPLPPWALIAMAVVAGLLLLTCCFCICKKCCCKKKKNKKEKGKGMKNAMNMKDMKGGQDDDDAETGLTEGEGEGEEEKEPENLGKLQFSLDYDFQANQLTVGVLQAAELPALDMGGTSDPYVKVFLLPDKKKKYETKVHRKTLNPAFNETFTFKVPYQELAGKTLVMAIYDFDRFSKHDIIGEVKVPMNTVDLGQPIEEWRDLQGGEKEEPEKLGDICTSLRYVPTAGKLTVCILEAKNLKKMDVGGLSDPYVKIHLMQNGKRLKKKKTTVKKKTLNPYFNESFSFEIPFEQIQKVQVVVTVLDYDKLGKNEAIGKIFVGSNATGTELRHWSDMLANPRRPIAQWHSLKPEEEVDALLGKNK

Variants of: B1
Settings: with bxb_clobo botB

Question: With MRNIFKRNQEPNVAPATTTATMPLAPVAPADNSTESTGPGESQEDMFAKLKEKAFNEINKIPLPPWALIAMAVVAGLLLLTCCFCICKKCCCKKKKNKKEKGKGMKNAMNMKDMKGGQDDDDAETGLTEGEGEGEEEKEPENLGKLQFSLDYDFQANQLTVGVLQAAELPALDMGGTSDPYVKVFLLPDKKKKYETKVHRKTLNPAFNETFTFKVPYQELAGKTLVMAIYDFDRFSKHDIIGEVKVPMNTVDLGQPIEEWRDLQGGEKEEPEKLGDICTSLRYVPTAGKLTVCILEAKNLKKMDVGGLSDPYVKIHLMQNGKRLKKKKTTVKKKTLNPYFNESFSFEIPFEQIQKVQVVVTVLDYDKLGKNEAIGKIFVGSNATGTELRHWSDMLANPRRPIAQWHSLKPEEEVDALLGKNK [F54A] as the variant, how does the “effect of a mutation on the interaction” value read?
Answer: The value was “disrupting interaction strength”.

Question: MRNIFKRNQEPNVAPATTTATMPLAPVAPADNSTESTGPGESQEDMAAKLKEKFFNEINKIPLPPWALIAMAVVAGLLLLTCCFCICKKCCCKKKKNKKEKGKGMKNAMNMKDMKGGQDDDDAETGLTEGEGEGEEEKEPENLGKLQFSLDYDFQANQLTVGVLQAAELPALDMGGTSDPYVKVFLLPDKKKKYETKVHRKTLNPAFNETFTFKVPYQELAGKTLVMAIYDFDRFSKHDIIGEVKVPMNTVDLGQPIEEWRDLQGGEKEEPEKLGDICTSLRYVPTAGKLTVCILEAKNLKKMDVGGLSDPYVKIHLMQNGKRLKKKKTTVKKKTLNPYFNESFSFEIPFEQIQKVQVVVTVLDYDKLGKNEAIGKIFVGSNATGTELRHWSDMLANPRRPIAQWHSLKPEEEVDALLGKNK [F47A] was tested. Which “effect of a mutation on the interaction” value did it give?
Answer: The value was “disrupting interaction strength”.

Question: For MRNIFKRNQEPNVAPATTTATMPLAPVAPADNSTESTGPGESQEDMFAKLKEKFANEINKIPLPPWALIAMAVVAGLLLLTCCFCICKKCCCKKKKNKKEKGKGMKNAMNMKDMKGGQDDDDAETGLTEGEGEGEEEKEPENLGKLQFSLDYDFQANQLTVGVLQAAELPALDMGGTSDPYVKVFLLPDKKKKYETKVHRKTLNPAFNETFTFKVPYQELAGKTLVMAIYDFDRFSKHDIIGEVKVPMNTVDLGQPIEEWRDLQGGEKEEPEKLGDICTSLRYVPTAGKLTVCILEAKNLKKMDVGGLSDPYVKIHLMQNGKRLKKKKTTVKKKTLNPYFNESFSFEIPFEQIQKVQVVVTVLDYDKLGKNEAIGKIFVGSNATGTELRHWSDMLANPRRPIAQWHSLKPEEEVDALLGKNK [F55A], which “effect of a mutation on the interaction” value is on record?
Answer: The value was “disrupting interaction strength”.
